We go through one molecule from patent US11998613B2, “Antibody-drug conjugates containing an anti-mesothelin antibody and uses thereof” (DEVELOPMENT CENTER FOR BIOTECHNOLOGY, priority 2020, dated 2024).

Data set [1] relates to KLM-1 human pancreatic cancer xenograft. Put plainly: KLM-1 xenograft model (Example 45). To be noted: 15 mg/kg IV once weekly for 3 weeks. The protocol:
Formulations respectively comprising test article DCBPR2002-4(DBCO-vc-MMAE)(15 mg/kg), test article DCBPR2002-4(DBCO-vc-seco-DUBA)(15 mg/kg), test article DCBPR2002-4(DBCO-s-DM1) (15 mg/kg), test article DCBPR2002-2(DBCO-vc-MMAE)-2(DBCO-vc-seco-DUBA) (15 mg/kg), test article DCBPR2002-2(DBCO-vc-MMAE)-2(DBCO-s-DM1) (15 mg/kg), test article DCBPR2002-2(DBCO-vc-seco-DUBA)-2(DBCO-s-DM1) (15 mg/kg), and a corresponding vehicle were formulated by diluting the stock with a 25 mM sodium citrate buffer (pH6.5). Each of the formulations was administered intravenously (IV) once weekly for three weeks.
The KLM-1 cells were maintained in vitro as a monolayer culture in RPMI-1640 medium supplemented with 10% fetal bovine serum at 37° C. in an atmosphere of 5% CO2 in air. The tumor cells were routinely sub-cultured twice weekly by trypsin-EDTA treatment. The cells growing in an exponential growth phase were harvested and counted for tumor inoculation.
Male NOD SCID mice at age of 6-7 weeks were purchased from BioLasco Taiwan Co., LTD. and quarantined for one week. Five mice were housed in each cage. All animals were hosted in the animal facility with a 12-h light/12-h dark cycle at 19-25° C. Animals had free access to rodent pellet foods and water ad libitum.
KLM-1 cells were subcutaneously (SC) implanted (4×10^6 cells in 1:1 PBS/matrigel mixture at 0.1 mL per mouse) into the right flank of male NOD SCID mice. When the average tumor volume had reached 300 mm^3, the mice were randomly divided into 7 groups (N=6 per group). Each of the vehicle, DCBPR2002-4(DBCO-vc-MMAE), DCBPR2002-4(DBCO-vc-seco-DUBA), DCBPR2002-4(DBCO-s-DM1), DCBPR2002-2(DBCO-vc-MMAE)-2(DBCO-vc-seco-DUBA), DCBPR2002-2(DBCO-vc-MMAE)-2(DBCO-s-DM1), DCBPR2002-2(DBCO-vc-seco-DUBA)-2(DBCO-s-DM1) was intravenously administered as 15 mg/kg once weekly for 3 weeks.
The tumor volumes, body weights, mortality, and signs of overt toxicity were monitored and recorded three times weekly for 28 days. Tumor volumes were measured three times per week using calipers and calculated according to the formula: Tumor Volume=(w2×l)/2, where w=width and l=length in diameter (mm) of the tumor. […] One-way ANOVA followed by Dunnett's test was applied for comparison between the vehicle and test article-treated groups. Differences are considered significant at *P<0.05. Animals were weighed three times weekly until the completion of the study.

In data set [2] the test system is OVCAR-3 human ovarian cancer xenograft. In words: OVCAR-3 xenograft model (Example 46). In kind it is in vivo, female NOD SCID mice. To be noted: 15 mg/kg IV once weekly for 3 weeks. The protocol:
Five mice were housed in each cage.
OVCAR-3 cells were subcutaneously (SC) implanted (1×10^7 cells in 1:1 PBS/matrigel mixture at 0.2 mL per mouse) into the right flank of female NOD SCID mice. […] Each of the vehicle, DCBPR2002-4(DBCO-vc-MMAE) (15 and 30 mg/kg), and DCBPR2002-4(DBCO-vc-seco-DUBA) (15 mg/kg) was intravenously administered once weekly for 3 weeks.
Differences are considered significant at *P<0.05.

Data set [3] relates to Ovarian carcinoma cell line OVCAR-3 (MSLN+). Put plainly: In vitro cytotoxicity, CellTiter-Glo luminescent cell viability assay, OVCAR-3. Particulars: OVCAR-3, 72 hours treatment; read-out: Relative IC50 (nM of toxic payload/ADCs). In kind it is cell-based, human. The protocol: (§1) The KLM-1 & OVCAR-3 cell lines were maintained in an atmosphere of 5% CO2 in a humidified 37° C. incubator. The day before treatment, cells were collected and seeded into 96-well plates (4,000 cells per well). On the second day, cells were treated with 3-fold serial dilution concentration of toxic payloads and ADCs. Each treatment was performed in eight triplicate data points. After the treatment of 72 hours, cell viability was assessed by CellTiter-Glo® kit (Promega) according to the manufacturer's instruction. At the end of the incubation, luminescence was measured using a SpectraMax i3x Multi Mode Detection Platform (Molecular Devices). Compound cytotoxicity was evaluated in comparison to cells treated with 0.05% PBS (ADCs) or 0.05% DMSO (toxic payload). IC50 values were calculated by fitting viability data with a four-parameter logistic equation using GraphPad prism 5.0 software.
Background: ATP-based viability assays read luminescence as a measure of living cells.

In data set [4] the test system is Pancreatic cancer cell line KLM-1 (MSLN+). Put plainly: In vitro cytotoxicity, CellTiter-Glo luminescent cell viability assay, KLM-1. In kind it is cell-based, human. To be noted: KLM-1, 72 hours treatment; read-out: Relative IC50 (nM of toxic payload/ADCs). The protocol: as §1, with “Pancreatic cancer cell line KLM-1 was respectively grown in RPMI 1640 Medium (ATCC modification) medium supplemented with 10% fetal bovine serum. Ovarian carcinoma cell line OVCAR-3 was grown in RPMI 1640 Medium (ATCC modification) medium supplemented with 20% fetal bovine serum. The KLM-1” for “The KLM-1”

B1: DCBPR2002-4(DBCO-vc-seco-DUBA): DCBPR2002-4Az reacted with DBCO-vc-seco DUBA; ADC, DAR ~4 (conjugate)
VH: QVQLVQSGAEVKKPGASVKVSCKASGYSFTGYTMNWVRQAPGQGLEWMGLITPYNGASSYNQKFRGRVTMTRDTSISTAYMELSRLRSDDTAVYYCARGGYDGRGFDYWGQGTLVTVSS
VL: EIVLTQSPATLSLSPGERATLSCSASSSVSYMHWYQQKPGQAPRLLIYDTSKLASGIPARFSGSGSGTDFTLTISSLEPEDFAVYYCQQWSKHPLTFGQGTKVEIKR
As to B1, the body weight changes entry in data set [1] and in data set [2] was “No body weight loss was observed” throughout. Moreover, the “ranking of efficacy potency” value in data set [1] was “DCBPR2002-4(DBCO-vc-seco-DUBA)=DCBPR2002-2(DBCO-vc-MMAE)-2(DBCO-vc-seco-DUBA)=DCBPR2002-2(DBCO-vc-seco-DUBA)-2(DBCO-s-DM1)>DCBPR2002-4(DBCO-vc-MMAE)>DCBPR2002-2(DBCO-vc-MMAE)-2(DBCO-s-DM1)>DCBPR2002-4(DBCO-s-DM1)”. Also, the IC50 was determined as 23.9 nM in data set [3] and 19.4 nM in data set [4].
